Test results reported in patent publication JP2011016773A.

Molecular target: HAMA血清タイプ1(Roche製、品番:1767275)
Assay: forward sandwich ELISA, inhibition of HAMA bridging of anti-hCEA antibodies, blocker solution at 1 ug/ml

マウスIgG(CHEMICON製、品番:PP54) (antibody)
HAMA回避効果: 61%

Heterophilic Blocking Reagent1 (SCANTIBODIES LABORATORY，INC.製、品番:3KC534−075)
HAMA回避率: 68%

MAK33−IgG1(Roche製、品番:1200941) (antibody)
HAMA回避率: 69%
